# Reference: patent US20260258135A1 (BIOINTRON BIOLOGICAL, published 2026)
# Biological target: T1, PDL1/His protein (human, UniProt Q9NZQ7 19-238, limits assumed, biotin-labeled in Examples 4 and 6 (site not stated); unlabeled in Example 9)
# T1 construct: The reagent is named only PDL1/His; also called Biotin-labeled PDL1/His; Bio-PDL1; not shown: His tag
# Assay: hotspot screening sandwich ELISA, anti-human Fc 1.0 ug/mL, Bio-PDL1 4 ng/ml
# Procedure: Goat-anti-human IgG Fc was subjected to serial dilution in Table 5 and coating was performed overnight at 4° C. The coating solution was discarded the next day, and the plate was washed 5 times. Blocking was performed with 1% BSA at room temperature for 1 h, and the plate was washed 5 times. 50 μL B378737 expression supernatant was added to each well, incubation was performed at room temperature for 1 h, and the plate was washed 5 times. Biotin-labeled PDL1/His protein diluted in series was added, incubation was performed at room temperature for 1 h, and the plate was washed 5 times. SA-HRP was added, incubation was performed at room temperature for 0.5 h, and the plate was washed 10 times. TMB color development was terminated after 4 min, and the absorbance at 450 nm was read. […] The sample was the mutant expressing supernatant, and the other processes were the same as above.
# T1 sequence (Q9NZQ7 19-238 limits assumed): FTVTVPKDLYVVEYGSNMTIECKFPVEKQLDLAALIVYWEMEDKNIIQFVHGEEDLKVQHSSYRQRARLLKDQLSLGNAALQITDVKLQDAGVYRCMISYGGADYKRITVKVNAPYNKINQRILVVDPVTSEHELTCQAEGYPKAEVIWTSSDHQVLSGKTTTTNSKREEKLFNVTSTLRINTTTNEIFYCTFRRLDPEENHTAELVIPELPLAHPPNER
row,binding result,Binder
1,binds,"B378737-97-1 (VHH, Single-point mutant of B378737 (position 97); not shown: human IgG Fc implied (supernatant captured with goat anti-human IgG Fc)) VHH: QVQLVESGGGLVQPGGSLRLSCAASARSINGMEWYRQAPGERRELVAGITAGGSAYYTDTVKGRFTISRDNAENTGYLQMNSLSPDDTAVYYCRRQFGPNWYWGQGTQVTVSS"
2,binds,"B378737-97-2 (VHH, Single-point mutant of B378737 (position 97); copied as printed; not shown: human IgG Fc implied (supernatant captured with goat anti-human IgG Fc)) VHH: QVRLVESGGGLVQPGGSLRLSCAASARSINGMEWYRQAPGERRELVAGITAGGSAYYTDTVKGRFTISRDNAENTGYLQMNSLSPDDTAVYYCRRQVGPNWYWGQGTQVTVSS"

# Biological target: T1, PDL1/His protein
# Assay: relative affinity ranking, sandwich ELISA, biotin-PDL1/His titrated from 5 ug/mL
# Procedure: The expression supernatants of the 11 single-point mutation molecules screened out in Example 4 and the 4 hotspot combination molecules screened out in Example 5 were subjected to relative affinity ranking. The specific process is as follows: The plate was coated with 1 μg/mL Goat-anti-human IgG Fc at 4° C. overnight. The coating solution was discarded the next day, and the plate was washed 5 times. Blocking was performed with 1% BSA at room temperature for 1 h, and the plate was washed 5 times. 50 μL of 2-fold diluted expression supernatant was added to each well and incubation was performed at room temperature for 1 h, and the plate was washed 5 times. Biotin-labeled PDL1/His diluted in series was added with 5 μg/mL in the first well, 3-fold dilution, and the last well as blank, and incubation was performed at room temperature for 1 h, and the plate was washed 5 times. SA-HRP was added, and incubation was performed at room temperature for 0.5 h, and the plate was washed 10 times. TMB color development was terminated after 4 min, and the absorbance at 450 nm was read.
row,Binder,binding result
1,"B378737-32 (VHH, Single-point mutant of B378737 (position 32); not shown: human IgG Fc implied (supernatant captured with goat anti-human IgG Fc)) VHH: QVQLVESGGGLVQPGGSLRLSCAASARSINGQEWYRQAPGERRELVAGITAGGSAYYTDTVKGRFTISRDNAENTGYLQMNSLSPDDTAVYYCRRQYGPNWYWGQGTQVTVSS",binds
2,"B378737-51 (VHH, Single-point mutant of B378737 (position 51); not shown: human IgG Fc implied (supernatant captured with goat anti-human IgG Fc)) VHH: QVQLVESGGGLVQPGGSLRLSCAASARSINGMEWYRQAPGERRELVAGITSGGSAYYTDTVKGRFTISRDNAENTGYLQMNSLSPDDTAVYYCRRQYGPNWYWGQGTQVTVSS",binds
3,"B378737-61-3 (VHH, Single-point mutant of B378737 (position 61); not shown: human IgG Fc implied (supernatant captured with goat anti-human IgG Fc)) VHH: QVQLVESGGGLVQPGGSLRLSCAASARSINGMEWYRQAPGERRELVAGITAGGSAYYTDTSKGRFTISRDNAENTGYLQMNSLSPDDTAVYYCRRQYGPNWYWGQGTQVTVSS",binds
4,"B378737-61-4 (VHH, Single-point mutant of B378737 (position 61); not shown: human IgG Fc implied (supernatant captured with goat anti-human IgG Fc)) VHH: QVQLVESGGGLVQPGGSLRLSCAASARSINGMEWYRQAPGERRELVAGITAGGSAYYTDTTKGRFTISRDNAENTGYLQMNSLSPDDTAVYYCRRQYGPNWYWGQGTQVTVSS",binds
5,"B378737-61-5 (VHH, Single-point mutant of B378737 (position 61); not shown: human IgG Fc implied (supernatant captured with goat anti-human IgG Fc)) VHH: QVQLVESGGGLVQPGGSLRLSCAASARSINGMEWYRQAPGERRELVAGITAGGSAYYTDTHKGRFTISRDNAENTGYLQMNSLSPDDTAVYYCRRQYGPNWYWGQGTQVTVSS",binds

# More lines, now with the values ahead:
row,binding result,Binder
1,binds,"B378737-61-1 (VHH, Single-point mutant of B378737 (position 61); not shown: human IgG Fc implied (supernatant captured with goat anti-human IgG Fc)) VHH: QVQLVESGGGLVQPGGSLRLSCAASARSINGMEWYRQAPGERRELVAGITAGGSAYYTDTPKGRFTISRDNAENTGYLQMNSLSPDDTAVYYCRRQYGPNWYWGQGTQVTVSS"
2,binds,"B378737-61-7 (VHH, Single-point mutant of B378737 (position 61); not shown: human IgG Fc implied (supernatant captured with goat anti-human IgG Fc)) VHH: QVQLVESGGGLVQPGGSLRLSCAASARSINGMEWYRQAPGERRELVAGITAGGSAYYTDTLKGRFTISRDNAENTGYLQMNSLSPDDTAVYYCRRQYGPNWYWGQGTQVTVSS"
3,binds,"B378737-61-2 (VHH, Single-point mutant of B378737 (position 61); not shown: human IgG Fc implied (supernatant captured with goat anti-human IgG Fc)) VHH: QVQLVESGGGLVQPGGSLRLSCAASARSINGMEWYRQAPGERRELVAGITAGGSAYYTDTYKGRFTISRDNAENTGYLQMNSLSPDDTAVYYCRRQYGPNWYWGQGTQVTVSS"
4,binds,"B378737-61-6 (VHH, Single-point mutant of B378737 (position 61); not shown: human IgG Fc implied (supernatant captured with goat anti-human IgG Fc)) VHH: QVQLVESGGGLVQPGGSLRLSCAASARSINGMEWYRQAPGERRELVAGITAGGSAYYTDTKKGRFTISRDNAENTGYLQMNSLSPDDTAVYYCRRQYGPNWYWGQGTQVTVSS"

# Biological target: T1, PDL1/His protein
# Assay: sandwich ELISA screen of hotspot combinations, as in Example 4
row,binding result,Binder
1,binds,"B378737-ZH-2 (VHH, Hotspot combination (positions 32 and 97); not shown: human IgG Fc implied (supernatant captured with goat anti-human IgG Fc)) VHH: QVQLVESGGGLVQPGGSLRLSCAASARSINGQEWYRQAPGERRELVAGITAGGSAYYTDTVKGRFTISRDNAENTGYLQMNSLSPDDTAVYYCRRQVGPNWYWGQGTQVTVSS"

# Biological target: T1, PDL1/His protein
# Assay: Biacore 8K (SPR), purified antibody
row,fold increase of affinity over the parent antibody B378737,Binder
1,10 times,"B378737-ZH-1 (VHH, Hotspot combination (positions 32 and 97); not shown: human IgG Fc implied (supernatant captured with goat anti-human IgG Fc)) VHH: QVQLVESGGGLVQPGGSLRLSCAASARSINGQEWYRQAPGERRELVAGITAGGSAYYTDTVKGRFTISRDNAENTGYLQMNSLSPDDTAVYYCRRQFGPNWYWGQGTQVTVSS"
2,12 times,"B378737-ZH-4 (VHH, Hotspot combination (positions 32, 61 and 97); not shown: human IgG Fc implied (supernatant captured with goat anti-human IgG Fc)) VHH: QVQLVESGGGLVQPGGSLRLSCAASARSINGQEWYRQAPGERRELVAGITAGGSAYYTDTHKGRFTISRDNAENTGYLQMNSLSPDDTAVYYCRRQVGPNWYWGQGTQVTVSS"
